Changes are numbered by the printed parent chain.
Legend:
[1] = biological target: T1, recombinant human FcγRIIIA-158V allotype (ELISA coat, generated at MedImmune) (human, UniProt P08637 17-208, limits assumed); assay: ELISA on plate-coated FcγRIIIA-158V (2 µg/ml), detection with goat anti-human Fc-HRP
T1 construct: also called FcγRIII-158V allotype; CD16A 158V
Protocol: (§1) Plates were washed five times with 200 μl of wash buffer (PBS containing 0.1% Tween 20), blocked with blocking buffer containing 5% milk in PBS for 1 hour at room temperature, and washed five additional times with wash buffer. Three-fold serial dilutions of the test antibody or control antibody (R347-Tm) were added to wells in duplicate. Plates were incubated for 2 hours at room temperature, and washed five times with wash buffer. Binding of the antibodies to the FcγRs was detected by adding 50 μl of goat anti-human Fc-HRP (Jackson ImmunoResearch Laboratories, PA) to the wells and incubating for 1 hour at room temperature, washing 10 times, and adding 50 μl TMB substrate (Pierce Biotechnology, MA). The color reaction was stopped with 50 μl 0.2M […] and the absorbance was measured using a spectrophotometer (Molecular Devices, CA) at […].

[2] = biological target: T2, human FcγRIIA 131R on blood cells of 131R/R donors (human, UniProt P12318 34-317); assay: cell-based or functional assay
T2 sequence: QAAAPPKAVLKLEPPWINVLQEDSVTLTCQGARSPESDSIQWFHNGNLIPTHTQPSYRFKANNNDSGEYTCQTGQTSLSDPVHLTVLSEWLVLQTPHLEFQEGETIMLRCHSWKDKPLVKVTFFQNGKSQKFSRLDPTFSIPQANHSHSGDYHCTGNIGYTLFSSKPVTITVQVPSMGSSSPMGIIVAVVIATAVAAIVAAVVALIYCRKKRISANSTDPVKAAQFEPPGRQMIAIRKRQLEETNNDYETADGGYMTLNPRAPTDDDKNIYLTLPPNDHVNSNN

[3] = biological target: T3, human FcγRIIA on primary human cells (neutrophils; sorted CD14+ monocytes), allotype not stated (human, UniProt P12318 34-317); assay: flow cytometry, fluorescently labelled antibody on human neutrophils, 30 min at 4 °C, in the presence of 10 mg/mL IVIG as competitor
T3 construct: whole, on cells; also called human FcγRIIA at the neutrophil surface; FcγRIIA-expressing neutrophils
T3 sequence (looked up): T2 sequence with R134H
Protocol: (§2) Human neutrophils were re-suspended in blocking buffer [phosphate-buffered saline (PBS) supplemented with 10% fetal bovine serum] and transferred to round-bottom 96-well culture plates (0.5×10^6 cells/well). […] After incubation, cells were washed with cold PBS and the mean fluorescence intensity (MFI) of cell-bound antibodies was assessed by flow cytometry using an LSRII (BD; Franklin Lakes, NJ). The EC₅₀ for binding was calculated using a non-linear fit equation in GraphPad Prism 6 software.

[4] = biological target: T3, human FcγRIIA on primary human cells …; assay: flow cytometry, fluorescently labelled antibody on human neutrophils, without IVIG
Protocol: as §2

[5] = biological target: T3, human FcγRIIA on primary human cells …; assay: flow cytometry, fluorescently labelled antibody on human neutrophils, 30 min at 4 °C, without IVIG
Protocol: as §2

[6] = biological target: T4, recombinant human FcγRI (ELISA coat, generated at MedImmune) (human, UniProt P12314 16-292, limits assumed); assay: ELISA on plate-coated FcγRI (2 µg/ml), detection with goat anti-human Fc-HRP
T4 construct: also called CD64
T4 sequence (P12314 16-292 limits assumed): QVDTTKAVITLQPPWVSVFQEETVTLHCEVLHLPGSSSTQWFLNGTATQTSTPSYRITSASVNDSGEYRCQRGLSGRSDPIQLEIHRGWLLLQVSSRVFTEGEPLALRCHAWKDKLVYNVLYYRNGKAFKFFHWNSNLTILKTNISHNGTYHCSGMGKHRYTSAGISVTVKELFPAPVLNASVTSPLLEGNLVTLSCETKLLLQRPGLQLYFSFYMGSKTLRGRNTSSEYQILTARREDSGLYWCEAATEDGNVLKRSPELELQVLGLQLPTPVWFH
Protocol: as §1

[7] = biological target: cynomolgus monkey FcγRIIA on blood cells (cynomolgus monkey); assay: cell-based or functional assay
[8] = biological target: T5, recombinant human FcγRIIIA-158F allotype (ELISA coat, generated at MedImmune) (human, UniProt P08637 17-208, limits assumed); assay: ELISA on plate-coated FcγRIIIA-158F (2 µg/ml), detection with goat anti-human Fc-HRP
T5 construct: also called FcγRIII-158F allotype; CD16A 158F
T5 sequence (P08637 17-208 limits assumed): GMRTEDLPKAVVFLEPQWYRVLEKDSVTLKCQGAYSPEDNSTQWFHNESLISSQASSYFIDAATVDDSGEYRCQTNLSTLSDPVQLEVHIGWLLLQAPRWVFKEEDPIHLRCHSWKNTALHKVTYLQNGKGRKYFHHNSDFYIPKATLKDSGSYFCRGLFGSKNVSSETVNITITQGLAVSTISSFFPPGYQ
Protocol: as §1

[9] = biological target: T6, human FcγRIIA 131H on blood cells of 131H/H donors (human, UniProt P12318 34-317); assay: cell-based or functional assay
T6 sequence (looked up): T2 sequence with R134H

[10] = biological target: T7, recombinant FcγRIIB (ELISA coat, generated at MedImmune) (UniProt P31994 43-217, limits assumed); assay: ELISA on plate-coated FcγRIIB (2 µg/ml), detection with goat anti-human Fc-HRP
T7 construct: also called CD32B
T7 sequence (looked up): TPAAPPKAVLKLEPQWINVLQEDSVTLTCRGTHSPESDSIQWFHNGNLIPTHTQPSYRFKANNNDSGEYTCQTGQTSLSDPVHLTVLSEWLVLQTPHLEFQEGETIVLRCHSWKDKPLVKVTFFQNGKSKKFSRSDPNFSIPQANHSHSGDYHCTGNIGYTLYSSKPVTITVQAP
Protocol: as §1

[11] = biological target: T8, recombinant FcγRIIA-131H/H allotype (ELISA coat, generated at MedImmune) (human, UniProt P12318 34-217, limits assumed); assay: ELISA on plate-coated FcγRIIA-131H/H (2 µg/ml), detection with goat anti-human Fc-HRP
T8 construct: also called human FcγRIIA; CD32A
T8 sequence (looked up): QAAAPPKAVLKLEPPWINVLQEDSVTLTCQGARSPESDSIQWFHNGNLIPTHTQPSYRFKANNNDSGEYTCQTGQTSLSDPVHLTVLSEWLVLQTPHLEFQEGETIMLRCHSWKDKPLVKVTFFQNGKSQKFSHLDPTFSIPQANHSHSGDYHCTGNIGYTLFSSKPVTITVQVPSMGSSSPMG
Protocol: as §1

[12] = biological target: T3, human FcγRIIA on primary human cells …; assay: flow cytometry, fluorescently labelled antibody on human neutrophils, in the presence of 10 mg/mL IVIG as competitor
Protocol: as §2

T1 sequence (P08637 17-208 F176V limits assumed): as the sequence (P08637 17-208 limits assumed) above, with F160V counted along it

B1: 32LO0352 (MEDI9600) (antibody, human IgG1, V domains shown)
VH: QVQLVQSGAEVKKPGASVKVSCKASGYTFTNYGMNWVRQAPGQRLEWMGWLNTYTGESWYPDDFKGRVTITRDTSASTAYMELSSLRSEDTAVYYCARGDYGYDDPLDYWGQGTLVTVSS
VL: DIVMTQSPLSLPVTPGEPASISCRSSKSLLHTNQNTYLHWFLQKPGQSPQLLIYRMSVLASGVPDRFSGSGSGTDFTLKISRVEAEDVGVYYCMQHLEYPLTFGQGTKLEIK
notes: Fluorescently labelled in the neutrophil flow cytometry assay and Alexa 647 labelled for confocal microscopy; also called clone 32LO0352; CD32LO0352
In the case of B1, the binding result [1] is reported as “no binding (tested: about 15000 ng/ml)”, the “IC50 of the loss of surface FcγRIIA (M.F.I of IV.3-Alexa 647) on monocytes, whole blood, 2 h at 37 °C” value [2] is reported as 59.3 pM and the EC50 [3] is reported as 3350 pM. The EC50 [4] was 30 pM, the EC50 [5] was 29.3 pM and the binding result [6] was “no binding (tested: about 15000 ng/ml)”. For the same binder, the “IC50 of the loss of surface FcγRIIA (M.F.I of IV.3-Alexa 647) on cynomolgus monocytes, whole blood, 2 h at 37 °C” value [7] was 1090 pM, the binding result [8] was “no binding (tested: about 15000 ng/ml)” and the “IC50 of the loss of surface FcγRIIA (M.F.I of IV.3-Alexa 647) on monocytes, whole blood, 2 h at 37 °C” value [9] was 80.9 pM. For the same binder, the binding result [10] was “no binding (tested: about 15000 ng/ml)”, the “EC50 (read off the curve)” value [11] was ~5 ng/mL and the EC50 [12] was 3340 pM.

From patent US20260125478A1 (VIELA BIO, published 2026)
